Kd data for one molecule are collected here from paper PMC4676704, “Functional Characterization of MC1R-TUBB3 Intergenic Splice Variants of the Human Melanocortin 1 Receptor” (PLoS ONE, 2015).

This assay addresses T1, Flag-tagged Iso1, MC1R-TUBB3 in-frame intergenic splice chimera (human).
T1 construct: numbers count on: MC1R-002; Tubulin-β-III, human; A BamHI site in the TUBB3 part was ablated by site-directed mutagenesis (ATC to ATT by the printed primer, silent by my reading); also called Flag-Iso1; MC1R-TUBB3 chimeric isoform Iso1; source: HEK293T, transfected (pcDNA3); not shown: Flag, N-terminal, kept
The assay can be described thus: radioligand binding; equilibrium competition binding on transfected HEK293T cells, 24 h after transfection, serum deprived 3 h; 125I-NDP-MSH 5x10^-11 M with unlabelled NDP-MSH from 10^-12 to 10^-7 M. The conditions noted are these: one partner purified.

B1: [Nle4, D-Phe7]-αMSH (NDP-MSH), 125I-labelled (peptide)
chain: SYSLEHFRWGKPV
modifications: not fully specified; Nle at position 4; D-Phe at position 7; 125I label (tracer)
What is called Kd is a measure of binding affinity in units of concentration. With B1, the affinity, expressed as Kd, was 0.59 nM.
